Biological target: T1, RS1 (retinoschisin), human, recombinant, secreted from Sf21 insect cells (human), O15537
T1 chain: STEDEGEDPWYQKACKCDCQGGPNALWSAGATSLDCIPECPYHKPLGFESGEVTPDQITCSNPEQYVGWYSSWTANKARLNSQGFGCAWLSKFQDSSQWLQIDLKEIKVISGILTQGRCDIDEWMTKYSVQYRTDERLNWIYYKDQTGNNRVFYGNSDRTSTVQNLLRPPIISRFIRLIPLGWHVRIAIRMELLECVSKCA
Test: negative stain single particle electron microscopy; purified RS1 adsorbed to glow discharged carbon-coated copper grids, stained with 0.75% uranyl formate; 2D classification (SPIDER) and 3D reconstruction (EMAN2, RELION, D8 symmetry enforced)
Details: remark: other sources report otherwise

- stoichiometry N: 8
B1: RS1 (retinoschisin), human, recombinant, secreted from Sf21 insect cells, O15537 24-224 (natural protein)
chain: STEDEGEDPWYQKACKCDCQGGPNALWSAGATSLDCIPECPYHKPLGFESGEVTPDQITCSNPEQYVGWYSSWTANKARLNSQGFGCAWLSKFQDSSQWLQIDLKEIKVISGILTQGRCDIDEWMTKYSVQYRTDERLNWIYYKDQTGNNRVFYGNSDRTSTVQNLLRPPIISRFIRLIPLGWHVRIAIRMELLECVSKCA
